The values below come from patent publication US20070089183A1 (WASHINGTON STATE UNIVERSITY, published 2007).

This test concerns the target dansyl-CaM (Sigma) (Homo sapiens (Human), UniProt P0DP23 2-149). The experiment in a line: fluorescence titration of dansyl-CaM with increasing amounts of peptide.

Take CRKKYRAIGTFMSVYYKSKKGR (also called synthetic DWF1 CaMBD) [synthetic DWF1 CaM-binding peptide (518-539), CRKKYRAIGTFMSVYYKSKKGR]: binding was characterised by a dissociation constant (Kd) of 0.0243 µM.
